These results are taken from PMC7360973.

This series relates to Hsf1 wt (trimer) (human). Description: fluorescence polarization. As to conditions: printed as <= 5 nM; 25 C; Hsf1 SEC buffer: 25 mM HEPES/NaOH pH 7.5, 150 mM NaCl, 10% glycerol, 2 mM DTT; FP at 25 C (5 nM DNA titration; 25 nM DNA and 100 nM trimer for dissociation) …. Background: Fluorescence polarisation rises when a labelled molecule tumbles more slowly, as on binding a larger partner.

With 3xHSE DNA (Alexa Fluor 488), the Kd (as a rule, the free concentration of one partner at which half of the binding sites on the other are occupied at equilibrium, for simple one-to-one binding) is less than 5 nM.
